B1: COV2-2094 (antibody, V domains shown)
VH: EVQLVESGGGVVRPGGSLRLSCAASGFIFDDYDMTWVRQAPGKGLEWVSGINWNGGSTGYADSVKGRFTISRDNAKNSLYLQMNSLRAEDTALYHCAVIMSPIPRYSGYDWAGDAFDIWGQGTMVTVSS
VL: SSELTQDPAVSVALGQTVRITCQGDSLRSYYASWYQQKPGQVPILVIYDKNNRPSGIPDRFSGSSSGNTASLTITGAQAEDEADYYCNSRDSSGNAVVFGGGTKLTVL
B2: COV2-2514 (antibody, V domains shown)
VH: EVQLVESGGGVVRPGGSLRLSCAASGFIFDDYDMTWVRQAPGKGLEWVSGINWNGGSTGYADSVKGRFTISRDNAKNSLYLQMNSLRAEDTALYHCAVIMSPIPRYSGYDWAGDAFDIWGQGTMVTVSS
VL: SSELTQDPAVSVALGQTVRITCQGDSLRSYYASWYQQKPGQVPILVIYDKNNRPSGIPDRFSGSSSGNTASLTITGAQAEDEADYYCNSRDSSGNAVVFGGGTKLTVL
B3: COV2-2096 (antibody, V domains shown)
VH: QVQLVQSGAEVKKPGASVKVSCKASGYTFGSFDINWVRQATGQGLEWMGRMNSNSGNTAYAQKFQGRVTMTRDTSTNTAYMELSSLRSEDTAMYYCARMRSGWPTHGRPDDFWGRGTLVTVSS
VL: QSVLTQAPSASGTPGQRVTISCSGSNSNIGSYTINWYQQLPGTAPKLLIYGNDQRTSGVPDRFSGSKFGTSASLAISGLQSEDENNYYCAVWDDSLNGLVFGGGTKLTVL
B4: COV2-2391 (antibody, V domains shown)
VH: QVQLVQSGAEVKKPGASVKVSCKASGYTFGSFDINWVRQATGQGLEWMGRMNSNSGNTAYAQKFQGRVTMTRDTSTNTAYMELSSLRSEDTAMYYCARMRSGWPTHGRPDDFWGRGTLVTVSS
VL: QSVLTQAPSASGTPGQRVTISCSGSNSNIGSYTINWYQQLPGTAPKLLIYGNDQRTSGVPDRFSGSKFGTSASLAISGLQSEDENNYYCAVWDDSLNGLVFGGGTKLTVL
B5: COV2-2952 (antibody, V domains shown)
VH: EVQLVESGGGLVQPGGSLRLSCAASGLTVRSNYMTWVRQTPGKGLEWVSVIYSGGSTFYADSVKGRFTISRDNSKNTVYLQMNSLRAEDTAVYYCARDLVTYGLDVWGQGTTVTVSS
VL: DIQLTQSPSFLSASVGDRVTITCRASQGISNYLAWYQQKPGTAPNLLIYAASTLQSGVPSRFSGSGSGTEFTLTISSLQPEDFATYYCQLLNSHPLTFGQGTRLEIK
B6: COV2-2165 (antibody, V domains shown)
VH: EVQLVESGGGLVQPGGSLRLSCAASGLTVRSNYMTWVRQTPGKGLEWVSVIYSGGSTFYADSVKGRFTISRDNSKNTVYLQMNSLRAEDTAVYYCARDLVTYGLDVWGQGTTVTVSS
VL: DIQLTQSPSFLSASVGDRVTITCRASQGISNYLAWYQQKPGTAPNLLIYAASTLQSGVPSRFSGSGSGTEFTLTISSLQPEDFATYYCQLLNSHPLTFGQGTRLEIK
B7: COV2-2838 (antibody, V domains shown)
VH: QMQLVQSGPEVKKPGTSVKVSCKASGFTFMSSAVQWVRQARGQRLEWIGWIVIGSGNTNYAQKFQERVTITRDMSTSTAYMELSSLRSEDTAVYYCAAPYCSSISCNDGFDIWGQGTMVTVSS
VL: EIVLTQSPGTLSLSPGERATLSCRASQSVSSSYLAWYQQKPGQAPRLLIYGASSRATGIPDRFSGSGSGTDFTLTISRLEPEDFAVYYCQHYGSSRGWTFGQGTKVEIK
B8: COV2-2196 (antibody, V domains shown)
VH: QMQLVQSGPEVKKPGTSVKVSCKASGFTFMSSAVQWVRQARGQRLEWIGWIVIGSGNTNYAQKFQERVTITRDMSTSTAYMELSSLRSEDTAVYYCAAPYCSSISCNDGFDIWGQGTMVTVSS
VL: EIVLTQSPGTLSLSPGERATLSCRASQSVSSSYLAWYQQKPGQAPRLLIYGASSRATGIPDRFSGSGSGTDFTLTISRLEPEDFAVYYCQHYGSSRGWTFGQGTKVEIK
notes: also called mAb COV2-2196
B9: COV2-3025 (antibody, V domains shown)
VH: EVQLVQSGPEVKKPGTSVKVSCKASGFTFMSSAVQWVRQARGQRLEWIGWIVIGSGNTNYAQKFQERVTITRDMSTSTAYMELSSLRSEDTAVYYCAAPYCSSISCNDGFDIWGQGTMVTVSS
VL: EIVLTQSPGTLSLSPGERVTLSCRASQSVSSSYLAWYQQKPGQAPRLLIYGASSRATGIPDRFSGSGSGTDFTLTISRLEPEDFAVYYCQHYGSSRGWTFGQGTKVEIK

Legend:
[1] = target: T1, SARS-CoV-2 spike (S) glycoprotein on virus (neutralization assays) (SARS-CoV-2, UniProt P0DTC2 14-1273); test: cell-based or functional assay
[2] = target: T1, SARS-CoV-2 spike (S) glycoprotein on …; test: cell-based or functional assay; remark: listed apart in the source
[3] = target: T2, SARS-CoV-2 RBD (Table A) (SARS-CoV-2, UniProt P0DTC2 319-541); test: ELISA, purified IgG
T2 construct: domain: RBD

[4] = target: SARS-CoV Spike trimer (Table A) (SARS-CoV, UniProt P59594 14-1190); test: ELISA, purified IgG
[5] = target: T3, SARS-CoV-2 NTD (Table A) (SARS-CoV-2, UniProt P0DTC2 14-305); test: ELISA, purified IgG
T3 construct: domain: NTD

[6] = target: T4, SARS-CoV-2 S receptor-binding domain (SRBD), residues 319-541 (SARS-CoV-2, UniProt P0DTC2 319-541); test: ELISA on coated antigen
T4 construct: range 319-541

| Binder | Nano-luciferase virus reduction test, SARS-CoV-2, IC50 [1] [µg/mL] | SARS-CoV-2 focus reduction test, IC50 [1] [µg/mL] | Neutralization IC50, ng/mL (FRNT, authentic SARS-CoV-2) [2] [ng/mL] | ELISA OD 450 nm [3] [OD 450 nm] | ELISA OD 450 nm [4] [OD 450 nm] | ELISA OD 450 nm [5] [OD 450 nm] | EC50 [6] [µg/mL] |
| --- | --- | --- | --- | --- | --- | --- | --- |
| B1 | < 0.05 | 0.151 | 154 | 4.3 | 4.1 | 0.1 | 0.0014 |
| B2 |  | 0.084 |  | 3.56 | 3.6 | 0.09 |  |
| B3 | < 0.2 | 0.29 | 59 |  |  | 0.12 |  |
| B4 |  | 0.045 |  |  |  | 0.1 |  |
| B5 |  | 0.089 |  |  |  | 0.1 |  |
| B6 | < 0.4 | 0.185 | 332 |  |  | 0.05 |  |
| B7 |  | 0.014 |  |  |  | 0.12 |  |
| B8 | < 0.1 | 0.029 | 15 |  |  | 0.05 |  |
| B9 |  | 0.031 | 37 | 3.7 | 0.21 |  | 0.0011 |
